“Also recorded” adds a separate entry of the source.
Experiments:
[1] = molecular target: htau40 (Homo sapiens, UniProt P10636); assay: Biacore X100 SPR of anti-tau mAbs on immobilised htau40; type: binding; settings: mAb, Table 27, immobilised hT40
Summary of the method: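 htau40 amine-coupled to a CM5 chip (~250 RU); mAb injected at 0.78–25 nM in HBS-EP+ at 30 μL/min, 120 s association, 600 s dissociation, glycine pH 1.5 regeneration. Kinetics and affinity from 1:1 binding fit with reference-cell subtraction.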

[2] = molecular target: dGAE (Homo sapiens, UniProt P10636); assay: dGAE fibril assembly, transmission electron microscopy; type: biochemical; settings: dGAE:antibody 4:1 or 1:1, 700 rpm, 37° C., 3 days
dGAE, sequence (P10636 614-708): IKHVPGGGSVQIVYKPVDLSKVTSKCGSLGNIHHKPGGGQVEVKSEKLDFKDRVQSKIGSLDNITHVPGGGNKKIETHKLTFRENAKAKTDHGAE
Description: dGAE protein was diluted into 10 mM phosphate buffer, pH 7.4 (PB) with monoclonal antibody s1D12 at a ratio of 4:1 protein: Ab (100 μM dGAE+25 μM s1D12 and 10 μM dGAE+2.5 μM s1D12) or 1:1 (25 μM dGAE+25 μM s1D12).
As a positive control, dGAE was prepared at a final concentration of 10, 25 or 100 μM in 10 mM PB. Negative controls consisted of dGAE with a non-tau IgG antibody at a ratio of 4:1 (10 μM dGAE+2.5 μM anti-ovalbumin), or antibody alone (25 or 2.5 μM s1D12 and 2.5 μM anti-ovalbumin). Samples were agitated at 700 rpm at 37° C., for 3 days.
Transmission electron microscopy (TEM), circular dichroism (CD) and Thioflavin S (ThS) assays were performed as detailed in Al-Hilaly et, al. (2018) J. Mol. Biol. 430, 4119-4131. Briefly, TEM grids were prepared by adding 4 μL of sample to a carbon-coated grid followed by a wash with milli-Q filtered water then staining twice with 2% uranyl acetate. Grids were air dried and then imaged using a JEOL electron microscope operating at 80 kV.

[3] = Pharmacokinetic study of S1D12 mAb, single dose, plasma and brain (dGAE ligand binding ELISA); type: in vivo, mouse; settings: single dose 30 mg/kg i.p., NMRI mice, plasma
Description: For the PK study, a total of 42 female NMRI mice (Swiss-type mouse, Naval Medical Research Institute) aged 6 months were allocated into six groups according to sample collection time (Table 30 for group size). Animals were injected intraperitoneally with S1D12 (30 mg/kg) and sacrificed 24-, 48-, 72-hours and 7-, 14- and 31-days after injection to collect blood and brain samples. A control group was also included in which animals were sacrificed to collect blood and brain, but no test item was administered.
Blood samples were centrifuged to obtain plasma at 2000×g for 5 min at 6° C., and samples were stored at −20° C. After blood collection, each mouse was perfused with heparinized saline for 2-3 minutes and the entire brain removed rapidly and snap frozen in liquid nitrogen and stored at −80° C.
Briefly, dGAE (1 μg/mL) was used to coat ELISA plates and blocked with 2% Marvel. […] Following washing, HRP-conjugated anti-mouse IgG as detector was added, and the assay developed using TMB solution as normal. The absorbance at 450 nm was read using a Clariostar plate reader (BMG Labtech) and MARS Clariostar software used to calculate S1D12 concentration from a standard curve.
Average values from each group (representing a time point) was plotted (FIG. 10) and the in vivo half-life, Cmax and Tmax calculated by performing a non-compartmental analysis of the plasma data using the PKSolver2.0 software (FIG. 51, Table 31). […] Here a higher coating concertation of dGAE at 10 μg/ml was used to compete off antibody binding to tau present in the brain.

[4] = molecular target: hT40 (Homo sapiens, UniProt P10636); assay: Sandwich ELISA, limits of detection (LoD) of antibody pairs; type: binding; settings: S1D12 mAb capture
hT40, sequence (P10636 1-441 isoform P10636-8): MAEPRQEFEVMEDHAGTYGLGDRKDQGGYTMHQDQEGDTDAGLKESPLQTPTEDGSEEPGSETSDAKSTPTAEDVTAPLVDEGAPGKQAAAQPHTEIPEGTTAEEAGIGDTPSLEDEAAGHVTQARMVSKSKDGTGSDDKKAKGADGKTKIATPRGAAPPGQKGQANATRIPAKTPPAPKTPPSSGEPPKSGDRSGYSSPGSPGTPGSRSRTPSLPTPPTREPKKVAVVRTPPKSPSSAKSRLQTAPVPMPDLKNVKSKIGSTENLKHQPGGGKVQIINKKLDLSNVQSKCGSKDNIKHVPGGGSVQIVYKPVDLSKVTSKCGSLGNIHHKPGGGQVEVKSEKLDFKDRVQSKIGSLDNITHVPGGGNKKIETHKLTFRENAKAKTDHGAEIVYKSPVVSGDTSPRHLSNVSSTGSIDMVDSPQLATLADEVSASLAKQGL
Description: Full length tau (hT40), at 1 μg/ml starting concentration was added to designated wells and double diluted across rest of the plates and left to incubate at R/T for 1 h. A series of detection scAbs with varying epitope recognition properties were added at 10 μg/ml to designated wells (FIG. 22). For colourimetric detection HRP conjugated anti-HuCk secondary antibody was used and the resulting immunoreaction was developed and absorbance at 450 nm measured as described previously. Cut-off point for a positive binding event was an absorbance value of 0.3 following background subtraction. In order to enhance the assay sensitivity, a chemiluminescent detection method was adopted where 50 μL SuperSignal ELISA Femto Substrate (Thermo Scientific) was added to each well following incubation with anti-HuCK HRP antibody and subsequent washing. The luminescence was read using Clariostar Plus microplate reader. A further modification to this protocol was done where various detection scAbs were directly conjugated with HRP and detected using chemiluminescent protocol as before. The lowest levels of detection achieved using different detection scAbs and a comparison of colourimetric and chemiluminescent methods of detection are shown in Table 28
The assay was conducted using chemiluminescent protocol described above.

htau40, sequence (P10636 1-441 isoform P10636-8): as above

B1: S1D12: anti-tau clone from immunised sheep, SEQ ID NO: 32 (protein)
scFv: QVQLQESGPSLVKPSQTLSLTCTVSGFSLNNNAVGWVRQAPGKVPESLVGCSSDGTCYYNSALKSRLDITRDTSKNQISLSLSSVTTDDAAVYYCTRGHYSIYGYDYLGTIDYWGPGLLVTVSSEGKSSGASGESKVDDQAVLTQPSSVSGSLGQRVSITCSGSSSNVGGGNSVGWYQHLPGSGLKTIIYDTNSRPSGVPDRFSGSRSGNTATLTINSLQAEDEGDYYCVTGDSTTHDDLVGSGTRLTVLG
modifications: S1D12 amino acid sequence
[1]
  ka: 405800 M⁻¹ s⁻¹
  kd: 4.093e-05 s⁻¹
[2]
  dGAE fibrils observed by TEM: no fibrils were present; also recorded: no fibril formation is observed
[3]
  Tmax (time of peak plasma concentration): 24 h
[3]; non-compartmental analysis
  t1/2 (elimination half-life from plasma): 256.2 h
[3]; read-out: Cmax (peak plasma concentration)
  Cmax: 1460 nM

B2: S1G2: anti-tau clone, SEQ ID NO: 81 (protein)
scFv: QVQLQESGPSLVKPSQTLSLTCTVSGFSLTSNSVGWVRQAPGKAPEWVAGIDTDGEEGYNPALNSRLSITRDTSKSQVSLSLSSVTSEDTAVYYCGRSYRADGLAYGYVQAIDYWGPGLLVTVSSEGKSSGASGESKVDDQAVVTQPSSVSGSLGQRVSITCSGSFIGISSVGWFQQLPGSGLRTIIVASDGRPSGVPDRFSMSKSGNTATLTISSLQAEDEADYFCGSSDRTPYTGVFGSGTRLTVLG
modifications: S1G2 amino acid sequence
[4]
  LoD direct HRP conjugation of detection scAb & chemiluminescence: 0.04 ng/mL
[1]
  ka: 339800 M⁻¹ s⁻¹
  kd: 4.748e-05 s⁻¹

Source: patent US12624096B2, “Anti-tau antibodies and methods of use thereof” (GTInvent Limited, priority 2020, dated 2026)
